Data taken from US20140349341.

Key:
[1] = test system: Mgat1 ZFN right monomer (CompoZr, FokI fusion) (synthetic construct); experiment: cell_activity; conditions: Cel-I assay day 3 in CHO cells (9.6% day 10); value is for ZFN pair; spacer ccagca
[2] = test system: Mgat1 ZFN left monomer (CompoZr, FokI fusion) (synthetic construct); experiment: cell_activity; conditions: Cel-I assay day 3 in CHO cells (9.6% day 10); value is for ZFN pair; spacer ccagca

Sequence	activity [1] [%]	activity [2] [%]
GCTGTGGTAGTGGAGGAC (double strand) [CHO Mgat1 ZFN right half-site]	8.8	–
AACAAGTTCAAGTTC (double strand) [CHO Mgat1 ZFN left half-site]	–	8.8
